Results taken from IntAct's records for PubMed 23104057.

B1: Neuropilin-1 (Mus musculus), P97333 (parent)
chain: MERGLPLLCATLALALALAGAFRSDKCGGTIKIENPGYLTSPGYPHSYHPSEKCEWLIQAPEPYQRIMINFNPHFDLEDRDCKYDYVEVIDGENEGGRLWGKFCGKIAPSPVVSSGPFLFIKFVSDYETHGAGFSIRYEIFKRGPECSQNYTAPTGVIKSPGFPEKYPNSLECTYIIFAPKMSEIILEFESFDLEQDSNPPGGMFCRYDRLEIWDGFPEVGPHIGRYCGQKTPGRIRSSSGVLSMVFYTDSAIAKEGFSANYSVLQSSISEDFKCMEALGMESGEIHSDQITASSQYGTNWSVERSRLNYPENGWTPGEDSYKEWIQVDLGLLRFVTAVGTQGAISKETKKKYYVKTYRVDISSNGEDWISLKEGNKAIIFQGNTNPTDVVLGVFSKPLITRFVRIKPVSWETGISMRFEVYGCKITDYPCSGMLGMVSGLISDSQITASNQADRNWMPENIRLVTSRTGWALPPSPHPYTNEWLQVDLGDEKIVRGVIIQGGKHRENKVFMRKFKIAYSNNGSDWKTIMDDSKRKAKSFEGNNNYDTPELRTFSPLSTRFIRIYPERATHSGLGLRMELLGCEVEAPTAGPTTPNGNPVDECDDDQANCHSGTGDDFQLTGGTTVLATEKPTIIDSTIQSEFPTYGFNCEFGWGSHKTFCHWEHDSHAQLRWSVLTSKTGPIQDHTGDGNFIYSQADENQKGKVARLVSPVVYSQSSAHCMTFWYHMSGSHVGTLRVKLRYQKPEEYDQLVWMVVGHQGDHWKEGRVLLHKSLKLYQVIFEGEIGKGNLGGIAVDDISINNHISQEDCAKPTDLDKKNTEIKIDETGSTPGYEGEGEGDKNISRKPGNVLKTLDPILITIIAMSALGVLLGAVCGVVLYCACWHNGMSERNLSALENYNFELVDGVKLKKDKLNPQSNYSEA
B2: Semaphorin-3A (Mus musculus), O08665 (parent)
chain: MGWFTGIACLFWGVLLTARANYANGKNNVPRLKLSYKEMLESNNVITFNGLANSSSYHTFLLDEERSRLYVGAKDHIFSFNLVNIKDFQKIVWPVSYTRRDECKWAGKDILKECANFIKVLEAYNQTHLYACGTGAFHPICTYIEVGHHPEDNIFKLQDSHFENGRGKSPYDPKLLTASLLIDGELYSGTAADFMGRDFAIFRTLGHHHPIRTEQHDSRWLNDPRFISAHLIPESDNPEDDKVYFFFRENAIDGEHSGKATHARIGQICKNDFGGHRSLVNKWTTFLKARLICSVPGPNGIDTHFDELQDVFLMNSKDPKNPIVYGVFTTSSNIFKGSAVCMYSMSDVRRVFLGPYAHRDGPNYQWVPYQGRVPYPRPGTCPSKTFGGFDSTKDLPDDVITFARSHPAMYNPVFPINNRPIMIKTDVNYQFTQIVVDRVDAEDGQYDVMFIGTDVGTVLKVVSVPKETWHDLEEILLEEMTVFREPTTISAMELSTKQQQLYIGSTAGVAQLPLHRCDIYGKACAECCLARDPYCAWDGSSCSRYFPTAKRRTRRQDIRNGDPLTHCSDLQHHDNHHGPSLEERIIYGVENSSTFLECSPKSQRALVYWQFQRRNEDRKEEIRMGDHIIRTEQGLLLRSLQKKDSGNYLCHAVEHGFMQTLLKVTLEVIDTEHLEELLHKDDDGDGSKIKEMSSSMTPSQKVWYRDFMQLINHPNLNTMDEFCEQVWKRDRKQRRQRPGHSQGSSNKWKHMQESKKGRNRRTHEFERAPRSV
B3: Plexin-A2 (Mus musculus), P70207 (parent)
chain: MEQRRFYLRAMQADNLSVVLLSVAWLLLARGTTGMPQYSTFHSENRDWTFNHLTVHRRTGAVYVGAINRVYKLTGNLTIQVAHKTGPEEDNKACYPPLIVQPCSEVLTLTNNVNKLLIIDYSENRLLACGSLYQGVCKLLRLDDLFILVEPSHKKEHYLSSVNKTGTMYGVIVRSEGEDGKLFIGTAVDGKQDYFPTLSSRKLPRDPESSAMLDYELHSDFVSSLIKIPSDTLALVSHFDIFYIYGFASGGFVYFLTVQPETPDGMAINSAGDLFYTSRIVRLCKDDPKFHSYVSLPFGCTRAGVEYRLLQAAYLAKPGEALAQAFNISSDEDVLFAIFSKGQKQYHHPPDDSALCAFPIRAINLQIKERLQSCYHGEGNLELNWLLGKDVQCTKAPVPIDDNFCGLDINQPLGGSTPVEGLTLYTTSRDRLTSVASYVYNGYSVVFVGTKSGKLKKIRADGPPHGGVQYEMVSVFKDGSPILRDMAFSINQLYLYVMSERQVTRVPVESCEQYTTCGECLSSGDPHCGWCALHNMCSRRDKCQRAWEANRFAASISQCMSLEVHPNSISVSDHSRLLSLVVNDAPNLSEGIACAFGNLTEVEGQVSGSQVICISPGPKDVPVIPLDQDWFGLELQLRSKETGKIFVSTEFKFYNCSAHQLCLSCVNSAFRCHWCKYRNLCTHDPTTCSFQEGRINVSEDCPQLVPTEEILIPVGEVKPITLKARNLPQPQSGQRGYECVLSIQGAVHRVPALRFNSSSVQCQNSSYQYDGMDISNLAVDFAVVWNGNFIIDNPQDLKVHLYKCAAQRESCGLCLKADHKFECGWCSGERRCTLHQHCPSTSSPWLDWSSHNVKCSNPQITEILTVSGPPEGGTRVTIHGVNLGLDFSEIAHHVQVAGVPCTPIPGEYIIAEQIVCEMGHAVIGTTSGPVRLCIGECKPEFMTKSHQQYTFVNPSVLSLSPIRGPESGGTMVTITGHYLGAGSSVAVYLGNQTCEFYGRSMNEIVCVSPPSSNGLGPVPVSVSVDRARVDSSLQFEYIDDPRVQRIEPEWSITSGHTPLTITGFNLDVIQEPRVRVKFNGKESVNVCTVVNTTTLTCLAPSLTSDYRPGLDTVERPDEFGFLFNNVQSLLIYNDTKFIYYPNPTFELLSPTGILDQKPGSPIILKGKNLCPPASGGAKLNYTVMIGETPCTVTVSETQLLCEPPNLTGQHKVMVHVGGMVFSPGSVSVISDSLLTLPAIISIAAGGSLLLIIVIIVLIAYKRKSRENDLTLKRLQMQMDNLESRVALECKEAFAELQTDINELTSDLDRSGIPYLDYRTYAMRVLFPGIEDHPVLRELEVQGNGQQHVEKALKLFAQLINNKVFLLTFIRTLELQRSFSMRDRGNVASLIMTGLQGRLEYATDVLKQLLSDLIDKNLENKNHPKLLLRRTESVAEKMLTNWFAFLLHKFLKECAGEPLFMLYCAIKQQMEKGPIDAITGEARYSLSEDKLIRQQIEYKTLILNCVNPDNENSPEIPVKVLNCDTITQVKEKILDAVYKNVPYSQRPRAVDMDLEWRQGRIARVVLQDEDITTKIEGDWKRLNTLMHYQVSDRSVVALVPKQTSSYNIPASASISRTSISRYDSSFRYTGSPDSLRSRVPMITPDLESGVKVWHLVKNHDHGDQKEGDRGSKMVSEIYLTRLLATKGTLQKFVDDLFETLFSTVHRGSALPLAIKYMFDFLDEQADRHSIHDTDVRHTWKSNCLPLRFWVNVIKNPQFVFDIHKGSITDACLSVVAQTFMDSCSTSEHRLGKDSPSNKLLYAKDIPSYKNWVERYYADIAKLPAISDQDMNAYLAEQSRLHATEFNMLSALNEIYSYVSKYSEELIGALEQDEQARRQRLAYKVEHLINAMSIES
B4: Neuropilin-1 (Mus musculus), P97333 (parent)
chain: B1 chain
partner: B2 chain

Variants of: B1
Conditions: with plxa2_mouse Plxna2, P70207

Row | Variant | effect of a mutation on the interaction
1 | P73A;H74S | disrupting interaction strength

Variants of: B2
Conditions: with nrp1_mouse Nrp1, P97333

Row | Variant | effect of a mutation on the interaction
2 | L353N;P355S | decreasing interaction strength

Variants of: B3
Conditions: with nrp1_mouse Nrp1, P97333

Row | Variant | effect of a mutation on the interaction
3 | F275N | decreasing interaction strength

Variants of: B4
Conditions: with sem3a_mouse Sema3a

Row | Variant | effect of a mutation on the interaction
4 | P73A;H74S | disrupting interaction strength
